Patent US7268216B2, “Chimeric avidin mutants” (Licentia Oy, priority 2004, dated 2007)
Where a chain is given by its changes, count along the chain named. In names and notes the source's numbering stands. Where two headings read alike, the source gives them in different places. Marks after values point to notes of the source that are not given here.

B1: AVR4/5: Avidin-related protein encoded identically by chicken genes AVR4 and AVR5 (protein, UniProt P56734 25-150, looked up)
Avidin-related protein 4/5: ARKCSLTGKWTNNLGSIMTIRAVNSRGEFTGTYLTAVADNPGNITLSPLLGIQHKRASQPTFGFTVHWNFSESTTVFTGQCFIDRNGKEVLKTMWLLRSSVNDISYDWKATRVGYNNFTRLCTVEE
B2: AVR4/5(C122S)-b: AVR4/5(C122S) produced in E. coli, non-glycosylated, three additional N-terminal residues (Gln-Thr-Val) (protein, UniProt P56734 25-150, looked up, variant C122S)
Avidin-related protein 4/5: B1 Avidin-related protein 4/5 with C122S
modifications: N-terminal Gln-Thr-Val extension
B3: AVR4/5(C122S): AVR4/5 with the cysteine forming intermonomeric disulphide bridges mutated to serine; insect cell produced (protein, UniProt P56734 25-150, looked up, variant C122S)
Avidin-related protein 4/5: B1 Avidin-related protein 4/5 with C122S
B4: ChiAVD: Chimeric avidin: residues 38-58 moved from AVR4/5 to avidin (SEQ ID NO:15) (protein, listed as Gallus gallus)
chain: MVHATSPLLLLLLLSLALVAPGLSARKCSLTGKWTNDLGSNMTIGAVNSRGEFTGTYITAVADNPGNITLSPLLGIQHKRASQPTFGFTVNWKFSESTTVFTGQCFIDRNGKEVLKTMWLLRSSVNDIGDDWKATRVGINIFTRLRTQKE
B5: ChiAVD(I117Y): Residues 38-58 moved from AVR4/5 to avidin and mutation I117Y in 1-3 subunit interface (SEQ ID NO:16) (protein, listed as Gallus gallus)
chain: B4 chain with I139Y

Legend:
[1] = Radiobiotin dissociation assay; assay type: binding; conditions: [3H]biotin, various temperatures
Description: The dissociation rate of [3H]biotin from avidin, AVR4/5 and the avidin mutants was determined as described in (20) at various temperatures. The activation thermodynamic parameters for AVR4/5(C122S) and avidin were determined by analysis of the dependence of the dissociation rate upon temperature using the global fit of all data, as described in (21).

[2] = cited from earlier work
[3] = tested on: Proteinase K; conditions: even without bound biotin; refs (8,32); cited from earlier work
[4] = recombinant protein, earlier report; cited from earlier work
[5] = Differential scanning calorimetry (DSC), heat denaturation; assay type: physicochemical; conditions: for ΔTm, change in Tm upon addition of a three-fold molar excess of biotin / Tm(+biotin) / ΔH (unfolding enthalpy) / Tm(−biotin): DSC; for Tm(+biotin): biotin 3:1 molar ratio biotin:avidin monomer; for ΔH (unfolding enthalpy): sample without biotin; for Tm(−biotin): without biotin, average ± S.D
Description: The transition midpoint of the heat denaturation (Tm) of the avidin proteins was studied using a Calorimetry Sciences Corporation (CSC) Nano II differential scanning calorimeter, as in previous reports (22,23). Proteins (˜0.5 mg/ml) were analyzed both in the absence and presence of biotin (3:1 molar ratio; biotin:avidin monomer).

[6] = Microplate assay: remaining biotin-binding activity after heat treatment; assay type: physicochemical; conditions: 50 mM phosphate buffer, 100 mM NaCl, pH 7.0
Description: The inactivation of the proteins during heat-treatment was analysed by using a microplate assay (23). The proteins were heated to 99.9° C. in 50 mM phosphate buffer containing 100 mM NaCl (pH 7.0) for 32 minutes. The remaining activity was probed by measuring the ability of the proteins to bind biotinylated alkaline phosphatase by coating the microplate wells with samples of the heated proteins.

[7] = tested on: Proteinase K; assay: Proteinase K assay (proteolytic resistance, SDS-PAGE); assay type: physicochemical; conditions: for state after incubation with Proteinase K: 16 hours, in the presence or absence of biotin
Description: The proteolytic resistance of the proteins were studied using proteolysis by Proteinase K, as previously described (7). Protein sample (4 μg) was incubated in the presence of Proteinase K ( 1/25 w/w) at 37° C. for a predetermined time period, denatured by boiling in sample buffer (SDS, 2-mercaptoethanol) and subjected to SDS-PAGE followed by coomassie staining.

[8] = Fluorescent biotin dissociation assay; assay type: binding
Description: The binding of labelled biotin to avidins was analysed by a method based on the quenching of a biotin-coupled fluorescent probe ArcDia BF560 (ArcDia Ltd., Turku, Finland) due to binding to avidin, as previously described (18). The measurements were performed using a PerkinElmer LS55 luminometer with thermostated cuvette (25 or 50° C.). The signal measured for 3600 sec (25° C.) or 2400 sec (50° C.) was used to determine the dissociation rate constant.

[9] = IAsys optical biosensor (SPR), 2-iminobiotin binding; conditions: 2-iminobiotin surface, 20° C., 50 mM borate buffer pH 9.5, 1 M NaCl
Description: The biotin-binding characteristics of the different avidins were studied by a surface plasmon resonance (SPR) optical biosensor (IAsys). The binding affinities to the 2-iminobiotin surface in 50 mM borate buffer (pH 9.5, 1 M NaCl) were measured as previously reported (7).

Molecule | biotin binding / dissociation rate in radiobiotin dissociation assay [1] | ΔTm, change in Tm upon addition of a three-fold molar excess of biotin [5] [°C] | Tm(+biotin) [5] | ΔH (unfolding enthalpy) [5] [kcal/mol] | Tm(−biotin) [5] [°C] | Activity: biotin-binding activity after 32 min treatment at 99.9° C. [6] [%] | state after incubation with Proteinase K [7] | Release 1 h (total release of the probe) ([8]; 25° C.) [%] | kdiss, dissociation rate constant ([8]; 25° C.) | Release 1 h (total release of the probe) ([8]; 50° C.) [%] | kdiss, dissociation rate constant ([8]; 50° C.) | kass, association rate constant [9] | Tm, transition midpoint of heat denaturation [5] [°C] | other results
B1 | almost as tightly as avidin |  |  |  |  |  |  |  |  |  |  |  |  | Tm, transition midpoint of heat denaturation ([2]; from ref (8)): 106.4 °C; resistance to cleavage by Proteinase K [3]: resistant to cleavage; biotin binding [4]: almost as tightly as avidin
B2 | slightly slower dissociation rate | 17.2 | 127.1 °C | 110 | 109.9 | 56 | remaining intact | 10.9 | 2.31 10^−5 s^−1 | 88.3 | 6.20 10^−4 s^−1 |  |  | 
B3 | tight biotin binding |  |  |  |  | 72 |  | 12.5 | 2.77 10^−5 s^−1 | 93.7 | 7.88 10^−4 s^−1 | (9.3 ± 0.4) × 10^3 M^−1s^−1 |  | resistance to the proteolytic activity of Proteinase K ([7]; even without biotin): total resistance; ΔH (unfolding enthalpy) ([2]; DSC, sample without biotin, results from ref (8)): 137 ± 7.89 kcal/mol; Tm(+biotin) ([2]; DSC, with biotin, results from ref (8)): 125.4 ± 0.8 °C; Tm(−biotin) ([2]; DSC, without biotin, results from ref (8)): 106.4 ± 0.8 °C; ΔTm, change in Tm upon addition of a three-fold molar excess of biotin ([2]; DSC, results from ref (8)): 19.5 °C
B4 | resembled AVR4/5(C122S) | 27.9 | 124.4 ± 0.2 °C | 126 ± 2.39 | 96.5 ± 0.2 | 47 | remaining intact | 13.1 | 1.76 10^−5 s^−1 | 93.9 | 8.00 10^−4 s^−1 | (1.7 ± 0.1) × 10^4 M^−1s^−1 | 96.5 | 
B5 | resembled AVR4/5(C122S) | ~19 | ~130^d ° C. | 158 ± 9.08 | 111.1 ± 0.2 | 98 | remaining intact | 9.5 | 1.94 10^−5 s^−1 | 94.8 | 7.33 10^−4 s^−1 | (1.6 ± 0.2) × 10^4 M^−1s^−1 | 111.1 | 
